Reference: article PMC11535546

Target: VASP (UniProt P50552)
Experiment: co-immunoprecipitation, immunoblot
Conditions: reference: wild-type Zyxin; sites S142,S143

binding against the reference: lost
Substance: Zyxin (from UniProt Q15942) Zyxin S142A/S143A
